Laboratory results published in patent US20150038430A1 (published 2015).
Bridge positions count the residues as written; N and C are the ends.

Experiments:
Assay in all cases: MS-based binding affinity
Bcl-xL = Bcl-xL (UniProt Q07817 1-212)
Mcl-1 = molecular target: Mcl-1
Bcl-2 = molecular target: Bcl-2

Bcl-xL, sequence (Q07817 1-212): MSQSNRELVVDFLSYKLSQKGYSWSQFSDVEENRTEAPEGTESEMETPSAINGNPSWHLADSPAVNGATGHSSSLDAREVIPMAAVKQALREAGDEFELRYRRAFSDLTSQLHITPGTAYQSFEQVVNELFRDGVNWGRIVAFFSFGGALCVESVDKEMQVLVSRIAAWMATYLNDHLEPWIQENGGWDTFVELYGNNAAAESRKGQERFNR

Row | Kd (Bcl-xL) [nM] | Kd (Mcl-1) [nM] | Kd (Bcl-2) [nM] | Binder
1 | < 100 |  |  | Ac-IWIAQELRXIGDXFNAYYARR-NH2 (staple 9-13; not fully specified (residues 9, 13); printed as Ac-IWIAQELR$IGD$FNAYYARR-NH2) [SP-4 (BIM-BH3 peptidomimetic macrocycle, Ac-IWIAQELR$IGD$FNAYYARR-NH2)]
2 |  | < 100 | < 100 | Ac-IWIAQELRXIGDXFNAYYARR-NH2 (staple 9-13; not fully specified (residues 9, 13); printed as Ac-IWIAQELR$IGD$FNAYYARR-NH2) [SP-4 BIM Stapled]
